In the assay the target is HD5. Kind of assay: SPR.

B1: HLA-B27 heavy chain homodimer (B27_(2)), recombinant HLA-B*2705 homodimer complex (complex)
chain 1: GSHSMRYFHTSVSRPGRGEPRFITVGYVDDTLFVRFDSDAASPREEPRAPWIEQEGPEYWDRETQICKAKAQTDREDLRTLLRYYNQSEAGSHTLQNMYGCDVGPDGRLLRGYHQDAYDGKDYIALNEDLSSWTAADTAAQITQRKWEAARVAEQLRAYLEGECVEWLRRYLENGKETLQRADPPKTHVTHHPISDHEATLRCWALGFYPAEITLTWQRDGEDQTQDTELVETRPAGDRTFQKWAAVVVPSGEEQRYTCHVQHEGLPKPLTLRWEPSSQSTVPIV
chain 2: SRYWAIRTR
modifications: biotinylated (site not stated)
Consider B1, for which binding was characterised by a dissociation constant (Kd) of 0.32 nM.

For the origin of these results see PMC4488392 (2015).
